The values below come from PMC6821609.

The target of this series is T1, HNF4α (hepatocyte nuclear factor 4α) (Homo sapiens, UniProt P41235 1-474).
T1 sequence: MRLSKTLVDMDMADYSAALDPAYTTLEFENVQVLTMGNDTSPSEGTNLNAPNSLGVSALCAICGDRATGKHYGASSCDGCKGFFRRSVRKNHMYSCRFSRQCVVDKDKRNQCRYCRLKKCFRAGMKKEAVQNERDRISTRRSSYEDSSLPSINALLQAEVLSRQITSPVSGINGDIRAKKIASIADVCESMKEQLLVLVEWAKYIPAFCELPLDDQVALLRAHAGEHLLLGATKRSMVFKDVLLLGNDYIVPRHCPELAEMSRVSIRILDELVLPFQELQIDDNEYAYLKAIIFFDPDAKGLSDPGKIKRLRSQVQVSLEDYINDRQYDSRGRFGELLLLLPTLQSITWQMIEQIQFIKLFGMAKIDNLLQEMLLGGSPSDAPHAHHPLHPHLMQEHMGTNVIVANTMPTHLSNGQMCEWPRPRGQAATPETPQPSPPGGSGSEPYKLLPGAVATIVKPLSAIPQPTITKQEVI
The series can be described thus: EMSA. In general terms: A gel shift assay detects complexes by their altered migration in electrophoresis.

B1: F9-wt (cfa_F9n_wt_Biotin) (dsDNA)
DNA 1: CAGAAGTAAATACAGCTCAACTTGTACTTTGGAACAACTGGTCAACC
DNA 2: GGTTGACCAGTTGTTCCAAAGTACAAGTTGAGCTGTATTTACTTCTG
Turning to B1, the binding result was “binds”.

B2: F9-mut (cfa_F9n_mut_Biotin) (dsDNA)
DNA 1: CCAGAAGTAAATACAGCTCAACTTGTATTTGGAACAACTGGTCAACC
DNA 2: GGTTGACCAGTTGTTCCAAATACAAGTTGAGCTGTATTTACTTCTGG
On to B2, for which the binding result was “no binding”.
